This note sets out measurements from the supplement of paper PMC10567573.

± gives the standard deviation.

The series is described as follows: protein stability index of a GFP-peptide fusion (GPS, HEK-293T) (PSI 1-6); higher = more stable.
The mark [1] stands for this setting: treatment: DMSO, c terminus: a fixed tail appended.
The mark [2] stands for this setting: treatment: MLN4924 1 uM, 8 h, c terminus: a fixed tail appended.
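Further: 24-mer peptide tiles fused after GFP, lentivirally expressed, FACS-sorted into six equal bins by GFP/DsRed ratio, decoded by Illumina sequencing, PSI is the read-weighted mean bin number.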

PPPLGPVVPVLVFPPDLVFRADQR [MOSPD3] registered a protein stability index under setting [1] of 3.25 ± 0.13 and a protein stability index under setting [2] of 3.22 ± 0.32.
Turning to PPPSAPASEYCPGKLSWGTMARAL [WDR88], the protein stability index runs as follows: under setting [1], 3.02 ± 0.24; under setting [2], 2.97 ± 0.4.
Consider PPSVLISKNEVGIFTTPNFDETSS [KMT2E], for which the protein stability index by setting is: under setting [1], 4.09 ± 0.12; under setting [2], 4.33 ± 0.069.
Consider PQHVSSDKEVRAASTEADKRLSRF [NLN], for which the protein stability index runs as follows: under setting [1], 5.3 ± 0.18; under setting [2], 5.1 ± 0.22.
For PRALIFSTDDFFFREDGAYEFNPD [N4BP2L1], in that order: 2.95 ± 0.41 and 3.66 ± 0.48.
In the same order, the values of PSDPLVSIGALISKAHLEKVRSYV [ALDH8A1] are 2.05 ± 0.079 and 2.12 ± 0.13.
PSEEYGKILEVVGRYSVHNAGISF [MLH1] gave a protein stability index under setting [1] of 2.32 ± 0.36.
On to PSGEEEAKVGPGLPDGCQPLQLLR [CBY2], for which the protein stability index is 4.75 ± 0.22 under setting [1] and 4.79 ± 0.27 under setting [2].
In the same order, the values of PSGNNGSVNWRTGSFHGPGHISLR [DLC1] are 3.09 ± 0.18 and 3.01 ± 0.19.
For PSHGEVGEHKDRIERQWGNLLGEG [ZSCAN9], in that order: 4.47 ± 0.19 and 4.47 ± 0.36.
In the same order, the values of PSNSSSLTLSGIKEDNSLLNQGFL [MYBL2] are 3.57 ± 0.35 and 3.81 ± 0.45.
Turning to PSSNNKELFYRVNYIGTKNVIETC [NSDHL], the protein stability index by setting is: under setting [1], 2.7 ± 0.2; under setting [2], 2.55 ± 0.18.
PTLDAPGGRALVVRKVPPGYSIKV [SMAD6]: the protein stability index under setting [1] turned out to be 2.83 ± 0.17 and the protein stability index under setting [2] came out at 3.17 ± 0.19.
In the same order, the values of PTQEEWRQVVDILWSDPMAQEGCK [PPEF2] are 3.96 ± 0.39 and 4.21 ± 0.079.
In the same order, the values of PVRCAGDWLPRGLGWGGRGAAVCA [ALG2] are 2.57 ± 0.36 and 2.25 ± 0.27.
For the sequence PVRPVSRGCLHSHGLQEGKDLFTQ [CDC25A], the protein stability index by setting is: under setting [1], 3.15 ± 0.33; under setting [2], 3.21 ± 0.13.
For PVVKKKGVKRKADTTTPTTSAITA [BRD3], in that order: 5.03 ± 0.29 and 5.01 ± 0.19.
For QAEFTAMRDQYMRAGEGFIICYSI [RIT1], in that order: 3.38 ± 0.48 and 3.04 ± 0.8.
For QALQAKASLTIPLVPETEDDRKLA [YJU2B], in that order: 5.16 ± 0.24 and 5.24 ± 0.11.
In turn, QAQIDQYLGLVRTHINAVVAKIQA [RTN1] came in with a protein stability index under setting [1] of 2.08 ± 0.35 and a protein stability index under setting [2] of 2.35 ± 0.28.
Turning to QCMQPNNIMGIENICELAARMLFS [NR2F2], the protein stability index under setting [1] stood at 2.45 ± 0.68 and the protein stability index under setting [2] is 2.49 ± 0.36.
For QDLDSRLRAGSSEFDSEHNLTSNE [RASAL3], in that order: 5.52 ± 0.29 and 5.42 ± 0.19.
In the same order, the values of QEAKLLHWNGRHKPWDFPSVHNDL [GLT8D2] are 3.11 ± 0.19 and 2.9 ± 0.28.
Regarding QELLDTVLVNLVPAHKNLNKQAYD [PDS5B], the protein stability index was 2.95 ± 0.34 under setting [1] and 3.02 ± 0.3 under setting [2].
For QETAKEEDGSVELESQVQKDGVAD [C18orf25], in that order: 5.55 ± 0.24 and 5.61 ± 0.34.
With QFHKQIAVMRGQILNLTQALKDNK [PI4K2A], the protein stability index under setting [1] was 2.5 ± 0.36 and the protein stability index under setting [2] came out at 2.8 ± 0.35.
In the same order, the values of QGQPVVNRPLSLKDQQTFARSVGL [TRADD] are 3.67 ± 0.35 and 3.9 ± 0.12.
For QGYVSDIRRFLSAFHEPQVGLIQA [DFFB], the protein stability index by setting is: under setting [1], 2.15 ± 0.47; under setting [2], 2.38 ± 0.17.
Take QILPVLDFCKVFLISGVTLDNCVE [KLHL13]: the protein stability index by setting is: under setting [1], 3.21 ± 0.41; under setting [2], 2.49 ± 0.064.
In the same order, the values of QIVLLKSSAIEVIMLRSNESFTMD [VDR] are 2.6 ± 0.7 and 2.44 ± 0.4.
QKLIVNLKPEKSYSFVLTNRGNSA [PTPRD]: the protein stability index was 2.58 ± 0.36 under setting [1] and 2.58 ± 0.13 under setting [2].
Take QKPLCASDGRTFLSRCEFQRAKCK [SMOC2]: the protein stability index is, setting by setting: under setting [1], 3.14 ± 0.52; under setting [2], 3.6 ± 0.88.
Turning to QLDIEEEGRPGAATFHVGGGPAQN [TFE3], the protein stability index was determined as 5.26 ± 0.31 under setting [1] and 5.16 ± 0.32 under setting [2].
Turning to QLKAVHEQLAALSQAPVNKPKKKK [BRD3], the protein stability index under setting [1] is 4.51 ± 0.44 and the protein stability index under setting [2] was 4.6 ± 0.19.
For QLLARRMQVDKKRVYLATDDPSLL [FUT8], in that order: 2.61 ± 0.23 and 2.92 ± 0.27.
Consider QLPIDRGGGEGKAMYIDTEGTFRP [RAD51], for which the protein stability index by setting is: under setting [1], 4.16 ± 0.15; under setting [2], 4.05 ± 0.24.
On to QLRATAGSLILPPGPGGTMKRHSS [FCHO1], for which the protein stability index is, setting by setting: under setting [1], 3.87 ± 0.16; under setting [2], 3.91 ± 0.33.
For QLYTAYILENRPPGSLLCTVAASD [PCDHGC5], in that order: 2.11 ± 0.24 and 2.18 ± 0.26.
For QNLCKGLSQPTTNLVAGCLQLNAR [NEUROD6], in that order: 2.97 ± 0.2 and 3.15 ± 0.23.
In the same order, the values of QNLNDRLASYLEKVRALEEANADL [KRT13] are 4.13 ± 0.17 and 3.98 ± 0.39.
For QNPTASYYNVVLLRYQFSRPGPQS [FCHO1], the protein stability index under setting [1] stood at 2.44 ± 0.46 and the protein stability index under setting [2] turned out to be 2.41 ± 0.27.
With QPPAITQVHRQGERRRELVRSQTL [SMTNL2], the protein stability index by setting is: under setting [1], 4.19 ± 0.39; under setting [2], 4.57 ± 0.33.
For QPPDMASALTDRTSRAPSTYTYTS [RSPH3], the protein stability index reads like this: under setting [1], 4.39 ± 0.17; under setting [2], 4.51 ± 0.15.
For QPSFPEILLESHMVMIRGNSGLKP [POMT2], the protein stability index amounted to 2.79 ± 0.3 under setting [1] and 3.07 ± 0.21 under setting [2].
In the case of QRDSKCKVKWTHEEDEQLRALVRQ [MYBL2], the protein stability index by setting is: under setting [1], 4.25 ± 0.33; under setting [2], 4.02 ± 0.24.
In the same order, the values of QRGALPAPDPELAAEMYQRGRAVL [RSAD1] are 4.36 ± 0.18 and 4.38 ± 0.17.
QRSHMGKLKEPQPQDHKPGLGAS: the protein stability index is, setting by setting: (treatment: DMSO, c terminus: native) 3.13 ± 0.88; (treatment: MLN4924 1 uM, 8 h, c terminus: native) 3.63 ± 0.56.
With QSQSLRDRARRFEEALRKNTEEQL [MTUS2], the protein stability index under setting [1] stood at 4.88 ± 0.28 and the protein stability index under setting [2] is 5.06 ± 0.18.
For QTTYLEDRPMFMLQCAMEENCLSA [LOXL2], in that order: 2.38 ± 0.59 and 2.33 ± 0.43.
Sequence QVENWSAFAPDFKELDENVEYEER [RBBP5] registered a protein stability index under setting [1] of 5.05 ± 0.36 and a protein stability index under setting [2] of 5.15 ± 0.48.
In the same order, the values of QVTMRGLLSCLSKSNNRLKSLSIQ [FBXO39] are 2.21 ± 0.11 and 2.07 ± 0.21.
Consider QYEKYSFRGFPPEDLMPLAAAYGH [P3H4], for which the protein stability index runs as follows: under setting [1], 3.01 ± 0.4; under setting [2], 2.55 ± 0.57.
Take QYFVVDPMAEYNMPQYILREFKVT [PTPRD]: the protein stability index under setting [1] turned out to be 2.48 ± 0.56 and the protein stability index under setting [2] amounted to 2.15 ± 0.16.
RAALICLTLVLVASVLLQAVLYPR [CD207] returned a protein stability index under setting [1] of 2.44 ± 0.55 and a protein stability index under setting [2] of 2.59 ± 0.53.
In the same order, the values of RADCASESACSSDSLDEARSSGSE [PWWP2B] are 5.42 ± 0.3 and 5.53 ± 0.26.
In the case of RAKDFLPADIQAQFAISRELIRNI [SNX8], the protein stability index was determined as 2.38 ± 0.18 under setting [1] and 2.48 ± 0.24 under setting [2].
For RAKVKTDDIARIYQPKRYALSPKT [FAM98B], in that order: 3.4 ± 0.26 and 3.5 ± 0.13.
For the sequence RASALCDRHTKFFEEPEDPSNRSF [PPP2R2B], the protein stability index by setting is: under setting [1], 4.38 ± 0.19; under setting [2], 4.49 ± 0.25.
With RASYSDGKLKAPPKPCAGNQGTQI [MLH1], the protein stability index runs as follows: under setting [1], 4.05 ± 0.53; under setting [2], 4.17 ± 0.14.
In the same order, the values of RCINDPYLEVLETMDNKKGRRYEA [CLCN6] are 3.82 ± 0.15 and 4.03 ± 0.32.
In the same order, the values of RDEAIYECVASNNVGEISVSTRLT [PTPRD] are 4.03 ± 0.34 and 3.91 ± 0.23.
In the same order, the values of RDPSLRPARTVLVGSLSWLRKQLQ are 2.75 ± 0.51 and 3.19 ± 0.48.
As for RDRLRSRLEALSTERDEIEDVKCQ [TRIM15], the protein stability index is 5.32 ± 0.15 under setting [1] and 5.44 ± 0.35 under setting [2].
In the same order, the values of REGDCAPEEKIWEELSVLEVFEGR [MAGEA3] are 5.08 ± 0.22 and 5.14 ± 0.11.
For REITGVQAQPGEATSGPPGIQPGQ [PALM], in that order: 5.37 ± 0.26 and 5.23 ± 0.2.
As to REKQLSHSLRAVSTDPPHHDHHDE [BEX1], the protein stability index was 5.37 ± 0.4 under setting [1] and 5.382 ± 0.051 under setting [2].
In the same order, the values of REQGPREQEPELSFLKQKEQLEAE [PBXIP1] are 5.5 ± 0.35 and 5.58 ± 0.33.
For RERAVEWRERAVEKRERALEEVER [ZBED2], in that order: 4.9 ± 0.71 and 5.08 ± 0.29.
For REVAKELGLPYYETSVFDQFGIKD [RHOBTB1], in that order: 3.18 ± 0.44 and 3.27 ± 0.29.
For the sequence RFIIIFEQIRFVMKAHSFVRENVP [SOAT1], the protein stability index came to 2.51 ± 0.39 under setting [1] and 2.65 ± 0.56 under setting [2].
For RFIRERDRAVNDYPSLYYPEMYIL [CDC25B], in that order: 2.49 ± 0.53 and 1.91 ± 0.29.
For RFQDPAAASISDGDCDAREEKQRE [FAM219A], in that order: 5.5 ± 0.4 and 5.46 ± 0.32.
